This passage reports Km, kcat and kcat/Km results from paper PMC3268748, “A novel cold-active β-D-galactosidase from the Paracoccus sp. 32d - gene cloning, purification and characterization” (Microbial Cell Factories, 2011).

Substrate in the series: O=[N+]([O-])c1ccccc1O[C@@H]1O[C@H](CO)[C@H](O)[C@H](O)[C@H]1O
In words: purified protein. It counts as biochemical, Paracoccus sp. 32d. Particulars: 20 °C, 20 mM sodium phosphate pH 7.3, apparent Km, also measured at 10 and 30 °C.

B1: BgaL; Paracoccus sp. 32d β-D-galactosidase (Paracoccus sp. 32d) (protein)
chain: MRVTQKLNHGWIFAEGAADPATPLAGETVTLPHNAVDLPLSYFDETSYQRAFTYQRVIAWDDAWQGRRVQLRFDGAMADNVVWVNGVQVVAHPDGYTPFVADLTDHLRPGDNLVTVRIDGSENPAIPPFGAQIDYLTYAGIYRDVWLMVLPERHLTNARILTPDALSDAKTVVIRPEVTAPGPVRARLLDGDREIAATEGEGELTLAGLTGLSLWSTDNPQLYTVELTLPDSGDVTTHRFGFRTAEWTPQGFLLNGQPMKLRGLNRHQSWAHQGYAAGRHAQERDAEIVRHDLCCNMVRTSHYPQSTWFLDRCDEIGLLVFEEIPGWQHIGDQAWQDRSVDNVRAMITRDWNHPSIVIWGVRINESPDNHDFYVRTNALARELDPTRAIGGVRCITDSEMLEDVYTMNDFILDESELPLINRPRTALRPTEEVTGIKKPVPYLVTEYNGHMFPTKAQDPELRQMEHVIRHLEVLNAAHGDPAISGCIGWCMFDYNTHKDFGAGDRICHHGVMDIWREPKFAAHAYGSQKPPSEGIVMEPVTFWARGERNIGGVLPLIVLTNCDEVEFECAGVTRRVGPDRERFPHLPRPPVIIDHRHISAEELGQWGMSWHPGRITGWLNGEQVALREYVADPLPTTLQIAPDRDTLPADGDIDLRVMLRALDQVGNRLPFLDAGIAVTVDGPARLIGPDLRMLQGGTTGMLLRLTGDAGTIRITARHPQFPEAVATVTVG
notes: E. coli LMG194, pBAD/Myc-His A with native stop codon (no tag), ion exchange purified; homodimer 161 kDa; GH2
Turning to B1, the Km was determined as 1180 ± 60 µM, the kcat came to 138 ± 2.19 s⁻¹ and the kcat/Km stood at 117000 M⁻¹ s⁻¹.
